From patent US20210079088A1 (published 2021)
Positions count from the first letter of the chain named.

T1: soluble human IL-4Rα (sIL-4Rα; PEPRO TECH, Catalog Number: 200-04R) (human, UniProt P24394 26-232)
T1 construct: Bought protein; also called shIL-4Rα; soluble hIL-4 Rα
T1 sequence: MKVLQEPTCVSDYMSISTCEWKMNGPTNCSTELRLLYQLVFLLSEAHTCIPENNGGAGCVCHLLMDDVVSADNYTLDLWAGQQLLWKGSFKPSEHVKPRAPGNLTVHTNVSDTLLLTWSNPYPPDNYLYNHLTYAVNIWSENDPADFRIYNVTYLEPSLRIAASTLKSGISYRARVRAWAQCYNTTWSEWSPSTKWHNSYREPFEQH

B1: L1000H1007 (antibody, V domains shown)
VH: EVQLVQSGGGLVHPGGSLRLSCAGSGFTFSRNAMFWVRQAPGKGLEWVSGIGTGGATSYADSVKGRFTISRDNAKNSLYLQMNSLRAEDMAVYYCARGRYYFDYWGQGTLVTVSS
VL: not shown
B2: L1001H1000 (antibody, V domains shown)
VH: B1 VH with S58N
VL: EIVLTQSPGTLSLSPGERATLSCRASQSVSNSYLAWYQQKPGQAPRLLIYGASSRAPGIPDRFSGSGSGTDFTLTISRLEPEDFAVYYCQQYDHSAGWTFGQGTKVEIK
B3: L1000H1031 (antibody, V domains shown)
VH: B1 VH with Q6E, H13Q, G24A, M90T
VL: not shown
B4: L1000H1014 (antibody, V domains shown)
VH: B1 VH with H13Q, G24A, S58N
VL: not shown
B5: L1000H1037 (antibody, V domains shown)
VH: B1 VH with S58N, N73E
VL: not shown
B6: L1012H1020 (antibody, V domains shown)
VH: B1 VH with D103P, Y104W
VL: not shown
B7: L1000H1025 (antibody, V domains shown)
VH: B1 VH with G24A, M90T, D103P, Y104W
VL: not shown
B8: L1019H1000 (antibody, V domains shown)
VH: B1 VH with S58N
VL: B2 VL with Y50F, P57T
B9: L1000H1015 (antibody, V domains shown)
VH: B1 VH with Q6E, H13Q, S58N
VL: not shown
B10: L1000H1029 (antibody, V domains shown)
VH: B1 VH with Q6E, H13Q, G24A, D103P, Y104W
VL: not shown
B11: L1012H1029 (antibody, V domains shown)
VH: B1 VH with Q6E, H13Q, G24A, D103P, Y104W
VL: not shown
B12: L1000H1036 (antibody, V domains shown)
VH: B1 VH with K43E, S58N
VL: not shown
B13: L1012H1000 (antibody, V domains shown)
VH: B1 VH with S58N
VL: not shown
B14: L1016H1000 (antibody, V domains shown)
VH: B1 VH with S58N
VL: B2 VL with N31S, Y50F, P57T, A96P, G97P
B15: L1000H1012 (antibody, V domains shown)
VH: B1 VH with M90T
VL: not shown
B16: L1000H1013 (antibody, V domains shown)
VH: B1 VH with Q6E, G24A, S58N
VL: not shown
B17: L1000H1001 (antibody, V domains shown)
VH: B1 VH with Q6E, H13Q, G24A, M90T, D103P, Y104W
VL: not shown
B18: L1015H1000 (antibody, V domains shown)
VH: B1 VH with S58N
VL: B2 VL with N31S, Y50F, A96P, G97P
B19: L1000H1024 (antibody, V domains shown)
VH: B1 VH with H13Q, M90T, D103P, Y104W
VL: not shown
B20: L1000H1032 (antibody, V domains shown)
VH: B1 VH with Q6E, H13Q, G24A, S58N, D103P, Y104W
VL: not shown
B21: L1011H1000 (antibody, V domains shown)
VH: B1 VH with S58N
VL: B2 VL with Y50F, D93G, H94S, A96P, G97P
B22: L1000H1030 (antibody, V domains shown)
VH: B1 VH with Q6E, H13Q, G24A, S58N, M90T, D103P, Y104W
VL: not shown
B23: L1000H1016 (antibody, V domains shown)
VH: B1 VH with S58N, D103P, Y104W
VL: not shown
B24: L1017H1000 (antibody, V domains shown)
VH: B1 VH with S58N
VL: not shown
B25: L1012H1007 (antibody, V domains shown)
VH: B1 VH
VL: not shown
B26: L1000H1027 (antibody, V domains shown)
VH: B1 VH with Q6E, G24A, M90T, D103P, Y104W
VL: not shown
B27: L1000H1022 (antibody, V domains shown)
VH: B1 VH with M90T, D103P, Y104W
VL: not shown
B28: L1000H1009 (antibody, V domains shown)
VH: B1 VH with Q6E, S58N
VL: not shown
B29: L1000H1008 (antibody, V domains shown)
VH: B1 VH with S58N, M90T
VL: not shown
B30: L1000H1023 (antibody, V domains shown)
VH: B1 VH with Q6E, M90T, D103P, Y104W
VL: not shown
B31: L1000H1026 (antibody, V domains shown)
VH: B1 VH with Q6E, H13Q, M90T, D103P, Y104W
VL: not shown
B32: L1020H1000 (antibody, V domains shown)
VH: B1 VH with S58N
VL: B2 VL with N31S, P57T
B33: L1000H1035 (antibody, V domains shown)
VH: B1 VH with F35H, S58N
VL: not shown
B34: L1000H1021 (antibody, V domains shown)
VH: B1 VH with S58N, M90T, D103P, Y104W
VL: not shown
B35: L1000H1020 (antibody, V domains shown)
VH: B1 VH with D103P, Y104W
VL: not shown
B36: L1012H1031 (antibody, V domains shown)
VH: B1 VH with Q6E, H13Q, G24A, M90T
VL: not shown
B37: L1007H1000 (antibody, V domains shown)
VH: B1 VH with S58N
VL: not shown
B38: L1000H1010 (antibody, V domains shown)
VH: B1 VH with H13Q, S58N
VL: not shown
B39: L1000H1028 (antibody, V domains shown)
VH: B1 VH with H13Q, G24A, M90T, D103P, Y104W
VL: not shown
B40: L1008H1000 (antibody, V domains shown)
VH: B1 VH with S58N
VL: not shown
B41: L1013H1000 (antibody, V domains shown)
VH: B1 VH with S58N
VL: B2 VL with Y50F, P57T, A96P, G97P
B42: L1009H1000 (antibody, V domains shown)
VH: B1 VH with S58N
VL: not shown
B43: L1010H1000 (antibody, V domains shown)
VH: B1 VH with S58N
VL: not shown

Each binder was assayed against T1, soluble human IL-4Rα (sIL-4Rα; PEPRO …) (assay: ELISA, coated sIL-4Rα, culture supernatant).
Experimental: Sample to be tested: For each antibody of the present invention, 10 μl and 2 μl of the culture supernatant of Expi293 cells expressing the antibody after transient transfection (the medium was Expi293 Expression Medium, Invitrogen, Catalog Number: A1435102; suspension culture was performed for 4 days at 100 rpm in a 8% CO2 incubator) were respectively added to 990 μl and 998 μl of PBS to prepare antibody samples to be tested of 1:100 and 1:500 dilutions.
100 μl of 100 μg/ml sIL-4Rα solution was added to 9.90 ml of PBS, mixed up and down, and then an antigen coating buffer of 1.0 μg/ml was obtained. The prepared antigen coating buffer was added to a 96-well ELISA plate (Corning) with a volume of 100 μl per well. The 96-well ELISA plate was incubated overnight in a refrigerator at 4° C. On the next day, the solution therein was discarded, and PBS containing 2% BSA was added to the 96-well ELISA plate row by row with a volume of 300 μl per well. The 96-well ELISA plate was incubated for 2 hours in a refrigerator at 4° C. Then the PBS containing 2% BSA was discarded and the plate was washed 3 times with PBST. Diluted antibodies to be tested were sequentially added to the corresponding wells, while the normal cell culture supernatants, as negative control samples, were added too. Three duplicate wells were made for each sample with a volume of 100 μl per well. The ELISA plate was wrapped with preservative film (or covered) and incubated for 1 h at 10° C. in a constant temperature incubator. Subsequently, the 96-well ELISA plate was taken out, and the solution therein was discarded. After washing with PBST for 3 times, TMB solution (Solarbio, Catalog Number: PR1200) was added to the 96-well ELISA plate row by row with a volume of 100 μl per well. The 96-well ELISA plate was placed at room temperature for 5 minutes, and 2 M H2SO4 solution was added in immediately to terminate the reaction. The 96-well ELISA plate was placed in flexstation 3 (Molecular Devices), the values of OD450 were read, and the data were collected, calculated and analyzed. Results were expressed relative to the affinity of control antibody 1.

| OD450/OD450 Control antibody 1 | Binder |
| --- | --- |
| 0.37 ratio to control antibody 1 | B1 |
| 1.56 ratio to control antibody 1 | B2 |
| 1.14 ratio to control antibody 1 | B3 |
| 1.06 ratio to control antibody 1 | B4 |
| -0.01 ratio to control antibody 1 | B5 |
| 0.11 ratio to control antibody 1 | B6 |
| 0.21 ratio to control antibody 1 | B7 |
| 1.79 ratio to control antibody 1 | B8 |
| 0.65 ratio to control antibody 1 | B9 |
| 0.8 ratio to control antibody 1 | B10 |
| 0.11 ratio to control antibody 1 | B11 |
| 0.1 ratio to control antibody 1 | B12 |
| 1.22 ratio to control antibody 1 | B13 |
| 0.27 ratio to control antibody 1 | B14 |
| 0.18 ratio to control antibody 1 | B15 |
| 0.38 ratio to control antibody 1 | B16 |
| 0.7 ratio to control antibody 1 | B17 |
| 0.67 ratio to control antibody 1 | B18 |
| 0.26 ratio to control antibody 1 | B19 |
| 0.53 ratio to control antibody 1 | B20 |
| 0.9 ratio to control antibody 1 | B21 |
| 0.2 ratio to control antibody 1 | B22 |

| OD450/OD450 Control antibody 1 | Binder |
| --- | --- |
| 0.61 ratio to control antibody 1 | B23 |
| 0.49 ratio to control antibody 1 | B24 |
| 0.4 ratio to control antibody 1 | B25 |
| 0.44 ratio to control antibody 1 | B26 |
| 0.18 ratio to control antibody 1 | B27 |
| 0.56 ratio to control antibody 1 | B28 |
| 0.21 ratio to control antibody 1 | B29 |
| 0.63 ratio to control antibody 1 | B30 |
| 0.11 ratio to control antibody 1 | B31 |
| 2.27 ratio to control antibody 1 | B32 |
| 0.22 ratio to control antibody 1 | B33 |
| 0.35 ratio to control antibody 1 | B34 |
| 0.23 ratio to control antibody 1 | B35 |
| 0.16 ratio to control antibody 1 | B36 |
| 0.8 ratio to control antibody 1 | B37 |
| 0.11 ratio to control antibody 1 | B38 |
| 0.33 ratio to control antibody 1 | B39 |
| 0.9 ratio to control antibody 1 | B40 |
| 0.24 ratio to control antibody 1 | B41 |
| 0.64 ratio to control antibody 1 | B42 |
| 1 ratio to control antibody 1 | B43 |
